Measured values from the supplement of paper PMC11865577.

Key:
Assay in all cases: pull-down binding Z-score (relative to library population); higher = stronger binding
[1] = test system: G-clamp-N3 (biotin conjugate); conditions: RNA library: Library-1 (pre-miRNA loops + repeats)
How it was run: (§1)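 Heat-folded RNA library (1 μg, Cy5 or Cy3 end label, phosphate/NaCl/KCl buffer) was captured for 60 min at 25 °C on streptavidin beads displaying 100 pmol of biotin-conjugated small molecule, then washed three times. The bound fraction, eluted in hot SDS, was hybridised to a DNA barcode microarray at 55.5 °C for 20 h. Z-scores for binding were taken against the library mean and standard deviation after beads-only subtraction and trimmed averaging of replicate barcoded probes.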

[2] = test system: TO-3-N3 (biotin conjugate); conditions: RNA library: Library-2
How it was run: as §1

[3] = test system: TO-3-N3-2 (biotin conjugate); conditions: RNA library: Library-2
How it was run: as §1

[4] = test system: TO-N3 (biotin conjugate); conditions: RNA library: Library-2
How it was run: as §1

[5] = test system: TO-N3-2 (biotin conjugate); conditions: RNA library: Library-2
How it was run: as §1

Row | Sequence | pull-down binding Z-score [1] | pull-down binding Z-score [2] | pull-down binding Z-score [3] | pull-down binding Z-score [4] | pull-down binding Z-score [5]
1 | GAGAGUGCUGUCUGAAUGCAAUGC [hsa-mir-500a] | 1.08 | 0.797 | 0.291 | 0.89 | 0.766
2 | GAGAGUGCUUUCUGAAUGCAAUGC [hsa-mir-501] | 1.7 | -0.342 | -0.161 | -0.14 | 0.716
3 | GAGAUGUGAUCCUGCCACAUCUC [hsa-mir-1304] | 0.421 | -0.09 | -0.00394 | -0.261 | -0.363
4 | GAGCCCUGAGGGGCUC [hsa-mir-6087] | 1.46 | 0.542 | -0.303 | 0.283 | -0.191
5 | GAGCCCUUGCACACCACCAGCCUC [hsa-mir-6845] | -1.73 | -0.0477 | 0.134 | 0.375 | 0.822
6 | GAGCCUGUCACAUCUCCAGACUC [hsa-mir-3925] | -1.04 | 0.0173 | -0.227 | -0.15 | 0.208
7 | GAGCCUUAAAGGAUGAGGUA [hsa-mir-4280] | -0.485 | 0.0602 | 0.063 | 0.362 | 0.54
8 | GAGCUCAGGAGCUC [hsa-mir-8052] | 0.271 | -0.634 | -0.529 | -0.9 | -0.448
9 | GAGCUGGAAGGAGUGGGCCUGGCUC [hsa-mir-6847] | 4.26 | 0.4 | 0.387 | 0.634 | 1.45
10 | GAGCUGGGUGGGGUGCCAAGCCU [hsa-mir-6819] | 1.38 | 2.3 | 1.71 | 2.43 | 2.06
11 | GAGCUUCGUGUACAUUAUCUAUUAGAAAAUGAAGUAC [hsa-mir-4724] | -0.219 | 0.0277 | -0.033 | 0.0579 | 0.0115
12 | GAGGAUGCAGGAGAGGAAGGGGGCUUCUUUUUGACGCCUACUUCAUCAGCUGCUCCUC [hsa-mir-4330] | 0.824 | 2.31 | 2.41 | 2.26 | 1.56
13 | GAGGCCAGAGGUGCCC [hsa-mir-4292] | 0.687 | -0.0325 | 0.122 | 0.295 | 1.3
14 | GAGGCCUCUUGCCAUGGCCUCC [hsa-mir-7113] | -1.1 | -0.486 | -0.378 | -0.406 | 0.766
15 | GAGGGAUGAGUGCACUUCACCUGC [hsa-mir-4435-1_4435-2] | 0.0709 | -0.191 | 0.0965 | 0.375 | 0.859
16 | GAGGGGCAUGCACUGUGUUCACCCUG [hsa-mir-134] | -0.276 | 0.47 | -0.0434 | 0.687 | 0.807
17 | GAGGGGCUUACUGCCCUGUGGGGCUCUCUGGACCCAGUGCCAUGCUUCUC [hsa-mir-6728] | 0.541 | -0.224 | -0.363 | 0.295 | 1.23
18 | GAGGUCUUCCCAUGCUAAGAAGUCCUC [hsa-mir-2116] | -0.641 | 1.51 | 0.115 | 1.19 | -0.154
19 | GAGGUGGGAAGGCUGCCCCAAAUGGCCUCUAACAUCCCUUCCAGUCUCCUCCUC [hsa-mir-6127] | -0.236 | -0.0543 | 0.23 | 0.194 | 0.919

Row | Sequence | pull-down binding Z-score [1] | pull-down binding Z-score [2] | pull-down binding Z-score [3] | pull-down binding Z-score [4] | pull-down binding Z-score [5]
20 | GAGGUUGCAGUGAGCCAAGAUCGUG [hsa-mir-4459] | 2.18 | -0.147 | 0.278 | 0.743 | 1.33
21 | GAGUACCUUCCAACACGAGCUCUC [hsa-mir-3664] | -1.16 | -0.183 | -0.173 | 0.318 | 1.06
22 | GAGUAUUUUAAUACUGGCAUACUC [hsa-mir-1263] | -0.0468 | -0.584 | 0.095 | -0.837 | -0.98
23 | GAGUCAGAAAAACUAC [hsa-mir-601] | -1.28 | 0.125 | -0.0131 | 0.484 | 0.271
24 | GAGUCCUAUUUAUUUUUAGGAUAUUAGGAA [hsa-mir-5692c-2] | -0.397 | -0.421 | -0.148 | -0.394 | -0.62
25 | GAGUGAAUC [hsa-mir-3610] | -0.304 | -0.31 | -0.35 | -0.454 | -0.552
26 | GAGUGAGGCCCAGUGGUCACCGCCGCCCUC [hsa-mir-4754] | -0.652 | 0.828 | 0.3 | 1.11 | 1.73
27 | GAGUGGUCGGGUCGACUGAACC [hsa-mir-4726] | -0.197 | 0.829 | 0.454 | 1.23 | 1.34
28 | GAGUGUAAUUACGUACAUGCAGUAGCUC [hsa-mir-618] | 0.413 | 0.405 | 0.182 | 0.341 | 0.152
29 | GAGUUGCUGAGUGGGUUGAUCUC [hsa-mir-6764] | 0.494 | 0.17 | 0.061 | 0.122 | 0.652
30 | GAGUUUGGAAUUAAAAUCAAAACC [hsa-mir-181a-1] | -0.118 | -0.619 | -0.129 | -0.398 | 0.419
31 | GAGUUUGGAGUCGGUGGGUGGAGCCAAACUG [hsa-mir-6860] | 2.37 | 1.13 | 0.706 | 1.5 | 1.52
32 | GAGUUUGGGAUUUGAAAAAACC [hsa-mir-181a-2] | 0.843 | 0.253 | 0.292 | 0.394 | 0.793
33 | GAGUUUGGGCAGCUCAGGCAAACC [hsa-mir-181c] | 0.335 | -0.201 | 0.132 | 0.492 | 1.12
34 | GAUAUGCCAUUAUGUGGGUCAUGAGGUGGUGA [hsa-mir-6864] | 0.225 | 0.197 | 0.416 | 0.738 | 1.54
35 | GAUCCAGCCCAGGCUGGUUCCGCUGAC [hsa-mir-4522] | -0.211 | 1.15 | 0.351 | 1.23 | 1.51
36 | GAUCCGGGAACCCACAGCCCCGUUC [hsa-mir-6783] | 0.0468 | 0.496 | 0.149 | 0.886 | 1.08
37 | GAUCCUUUGUUCUGGAUC [hsa-mir-7856] | 0.436 | 0.118 | -0.283 | -0.266 | -0.63
